Legend:
[1] = system: NCI-H358 cells; assay: Cell viability after 48 h treatment; type: cell-based, human
[2] = system: human red blood cells; assay: Hemolysis assay, hemoglobin released from red blood cells; type: cell-based; conditions: hemoglobin in supernatant, spectrophotometric
[3] = Dynamic light scattering; type: physicochemical; conditions: DLS intensity average, scattering angle 90°, room temperature, Nanopure water
[4] = system: SKOV-3 cells; assay: Cell viability after 48 h treatment; type: cell-based, human
[5] = target: α-chymotrypsin (Bos taurus, UniProt P00766); assay: Proteinase assay, α-chymotrypsin degradation by PAGE; type: in vitro ADME; conditions: bands of intact MEL diminished significantly after 15 min
[6] = system: NCI-H358 xenografts; assay: Biodistribution by fluorescence imaging in NCI-H358 xenograft mice; type: in vivo; conditions: i.v. 3 mg/kg MEL, 24 h post-injection, n = 2
[7] = Innate immune response, cytokine ELISA; type: in vivo; conditions: C57BL/6 mice, 3 mg/kg MEL, blood 4 h after injection, n = 5
[8] = system: NCI-H358 xenografts; assay: Tumor growth inhibition in NCI-H358 xenograft; type: in vivo, athymic nude mice; conditions: 3 mg/kg MEL-basis i.v. every 3 days, 30 days, n = 4; vehicle 453%
[9] = ζ potential measurement; type: physicochemical; conditions: in Nanopure water
[10] = system: SKOV3 cells; assay: Cellular uptake kinetics by flow cytometry; type: cell-based, human; conditions: 1 μM of MEL for 1–4 h
[11] = system: human plasma; assay: Activated partial thromboplastin time; conditions: 20 μM MEL concentration
[12] = Plasma pharmacokinetics after tail vein injection; type: in vivo; conditions: C57BL/6 mice, i.v. tail vein, Cy5.5-labeled, two-compartment model, n = 5
[13] = system: NCI-H358 cells; assay: Cellular uptake kinetics by flow cytometry; type: cell-based, human; conditions: 1 μM of MEL for 1–4 h

Substance | cytotoxicity (cell viability, in words) [1] | hemolysis at 1 μM ([2]; 1 μM) [%] | Dh (hydrodynamic diameter, DLS) [3] [nm] | cytotoxicity (cell viability, in words) [4] | α-chymotrypsin digestion (in words) [5] | tumor vs. liver ratio (relative fluorescent intensities) [6] | tumor vs. spleen ratio (relative fluorescent intensities) [6] | interleukin-6 (IL-6) activation [7] | hemolysis of RBCs at 60 μM ([2]; 60 μM) | tumor growth by day 30 (% of original size) [8] | ζ potential [9] | cellular uptake (in words) [10] | effect on coagulation (clotting) time, aPTT [11] | elimination half-life (t1/2β) [12] [min] | cellular uptake (in words) [13]
YPEG-MEL: conjugate of low PEG density: MEL on Y-shaped PEG, Mn 40 kDa, each arm 20 kDa | reduced but still apparent cytotoxicity | 16 | 21.0 ± 0.5 | reduced but still apparent cytotoxicity | digested rapidly | – | – | – | – | – | – | – | – | – | –
melittin | – | – | – | – | digested rapidly | 0.61 | 0.55 | induces activation | near-complete hemolysis | did not lead to statistically meaningful repression of tumor growth | ~ 8 mV | fast and accelerating process | doubling the coagulation times | 43 | fast and accelerating process
pacMELNClv: non-cleavable conjugate of MEL and bottlebrush PEG, negative control | no evident cytotoxicity | – | – | no evident cytotoxicity | – | – | – | – | – | – | – | – | – | – | –
